Patent publication US20260209325A1 (SCHOLAR ROCK, published 2026)
Substitutions are numbered along the chain they refer to. Read-outs that look alike come from different tables or passages of the source.

B1: Ab109 (antibody, human IgG4 S228P, kappa, V domains shown)
VH: EVQLVESGGGLVQPGGSLRLSCAASGFTFSSYGMSWVRQAPGKGLELVASFTGSGGTYYPDSVKGRFTISRDNAKNSLYLQMNSLRAEDTAVYYCARDLLIRFLEWSHYYGMDVWGQGTTVTVSS
VL: DIVMTQSPLSLPVTPGEPASISCRSSQSLLHSSGHNFLHWYLQKPGQSPQLLIYEVSNRVSGVPDRFSGSGSGTDFTLKISRVEAEDVGVYYCMQQTQYPPTFGGGTKVEIKR
notes: human IgG4 in the EM experiment; also called Ab109 Human IgG4
B2: Ab104 (antibody, human IgG4 S228P, kappa, V domains shown)
VH: EVQLVESGGGLVQPGGSLRLSCAASGSAFSSYGMSWVRQAPGKGLELVASINSNGGSTYYPDSVKGRFTISRDNAKNSLYLQMNSLRAEDTAVYYCARDLLVKFLSWSHYYGMDVWGQGTTVTVSS
VL: B1 VL
B3: Ab121 (antibody, human IgG4 S228P, kappa, V domains shown)
VH: QVTLRESGPALVKPTQTLTLTCTVSGFSFSTSGMVVNWIRQPPGKALEWLAMIDWDADNIVYNSALKSRLTISKDTSKNQVVLTMTNMDPVDTATYYCAKDTGSGWFDAFDIWGQGTMVTVSS
VL: DIVMTQSPDSLAVSLGERATINCKSSQSVLYSSTNQNFLAWYQQKPGQPPKLLIYQASTLQNGVPDRFSGSGSGTDFTLTISSLQAEDVAVYYCQQYLTTPYTFGGGTKVEIKR
B4: Ab127 (antibody, human IgG4 S228P, kappa, V domains shown)
VH: EVQLVESGGGLVQPGGSLRLSCTASGFTFGSYPMDWVRQAPGKGLEWVSYISGRGDVTYYADSVKGRFTISRDNAKNTLYLQMNSLRAEDTAVYYCAKVQSPSELLWFGELLPVDYWGQGTLVTVSS
VL: DIQMTQSPSSLSASVGDRVTITCQASQVIKTWLNWYQQKPGKAPKLLIYDASNLQRGVPSRFSGSGSGTDFTFTISSLQPEDIATYYCQQSASTPITFGGGTKVEIKR
B5: Ab132 (antibody, human IgG4 S228P, kappa, V domains shown)
VH: B1 VH
VL: B1 VL with M94Q
B6: Ab122 (antibody, human IgG4 S228P, kappa, V domains shown)
VH: QVTLRESGPALVKPTQTLTLTCTVSGGSLSSGGSYVNWIRQPPGKALEWLAMTDWDADNIVYNSALKSRLTISKDTSKNQVVLTMTNMDPVDTATYYCAHRQNVDSYGYWGDAFDIWGQGTMVTVSS
VL: DIVMTQSPDSLAVSLGERATINCKSSQSVLYSADNKNYLAWYQQKPGQPPKLLIYDASSLENGVPDRFSGSGSGTDFTLTISSLQAEDVAVYYCQQGHLFPYSFGGGTKVEIKR
notes: The light chain is printed ending ...NRGE, without the last C
B7: Ab111 (antibody, human IgG4 S228P, kappa, V domains shown)
VH: QVQLVQSGAEVKKPGASVKVSCKVSGYTFTSNDIHWVRQAPGKGLEWMGGIFPIFGTTIYAQKFQGRVTMTEDTSTDTAYMELSSLKSEDTAVYYCAREGLGYDFDYWGQGTLVTVSS
VL: DIQMTQSPSSVSASVGDRVTITCRASQNIGNWLAWYQQKPGKAPKLLIYSASALQSGVPSRFSGSGSGTDFTLTISSLQPEDFANYYCQQSYGAPMYSFGGGTKVEIKR
B8: Ab113 (antibody, human IgG4 S228P, kappa, V domains shown)
VH: QVQLVQSGAEVKKPGASVKVSCKVSGYLLTELSIHWVRQAPGKGLEWMGGIIPSFGTAIYAQKFQGRVTMTEDTSTDTAYMELSSLKSEDTAVYYCAISYSGFDLLPLDKWGQGTLVTVSS
VL: DIQMTQSPSSVSASVGDRVTITCRASQHISTWLAWYQQKPGKAPKLLIYYASSLQGGVPSRFSGSGSGTDFTLTISSLQPEDFANYYCLQTYTYPRTFGGGTKVEIKR

Key:
human pro-myostatin [1] = biological target: T1, human pro-myostatin (human, UniProt O14793 24-375, biotinylated (in the SPR assay)); experiment: cell-based or functional assay
[2] = biological target: T2, recombinant human latent myostatin (human, UniProt O14793 24-375, biotinylated (in the Octet pH assay only)); experiment: cell-based or functional assay
[3] = biological target: T2, recombinant human latent myostatin; experiment: BLI (Octet Red384): streptavidin biosensors loaded with biotinylated human latent myostatin, antibody association 300 s, dissociation in PBS at pH 7.4 or pH 5.5
Procedure: (§1) Binding was performed at pH 7.4 and dissociation at pH 5.5 in an Octet Red384@assay. Streptavidin biosensors were baselined in 1x kinetics buffer (KB) (Sartorius) for one minute, then loaded with 100 nM biotinylated human latent myostatin for five minutes, followed by another baseline step of one minute in 1x KB. Binding of test antibodies was performed for five minutes and then dissociation was performed in PBS at either pH 7.4 or pH 5.5 for five minutes. Analysis was performed using a partial fit, in which full dissociation was projected. Kd at pH 5.5 was divided by Kd at pH 7.4 to calculate pH sensitivity.

[4] = biological target: T2, recombinant human latent myostatin; experiment: cell-based or functional assay; remark: listed apart in the source
human pro-myostatin [5] = biological target: T1, human pro-myostatin; experiment: Ab KD, summary Table 11; method and antigen not stated there
[6] = biological target: T2, recombinant human latent myostatin; experiment: BLI (Octet Red384): streptavidin biosensors loaded with biotinylated human latent myostatin, antibody association 300 s, dissociation in PBS at pH 7.4 or pH 5.5; remark: listed apart in the source
Procedure: as §1

cyno pro-myostatin [7] = biological target: T3, cyno pro-myostatin (cynomolgus monkey, Biotinylated for capture in the SPR assay (site not stated). The native form is a disulfide-linked homodimer, partly furin-cleaved; one chain is given.); experiment: SPR Biacore 8K, biotin-antigen captured
T3 construct: also called proGDF8 (cynomolgus); cynomolgus monkey pro-myostatin

murine pro-myostatin [8] = biological target: T4, murine pro-myostatin (mouse, UniProt O08689 25-376, biotinylated (in the SPR assay)); experiment: SPR Biacore 8K, biotin-antigen captured
T4 construct: also called proGDF8 (mouse); mouse pro-myostatin

human pro-myostatin [9] = biological target: T1, human pro-myostatin; experiment: SPR Biacore 8K, biotin-antigen captured
[10] = biological target: T2, recombinant human latent myostatin; experiment: cell-based or functional assay; remark: listed apart in the source
human pro-myostatin [11] = biological target: T1, human pro-myostatin; experiment: plate binding assay, absorbance at 450 nm, antibody titrated 100 to about 0.002 nM, panel 'Human Pure Pro-GDF-8' (method not described in the text)
murine pro-myostatin [12] = biological target: T4, murine pro-myostatin; experiment: plate binding assay, absorbance at 450 nm, antibody titrated 100 to about 0.002 nM, panel 'Murine Pure Pro-GDF-8' (method not described in the text)
cyno pro-myostatin [13] = biological target: T3, cyno pro-myostatin; experiment: plate binding assay, absorbance at 450 nm, antibody titrated 100 to about 0.002 nM, panel 'Cyno Pure Pro-GDF-8' (method not described in the text)
cyno pro-myostatin [14] = biological target: T3, cyno pro-myostatin; experiment: plate binding assay, OD 450 nm, antibody titrated 0.0003 to 100 nM, panel 'Cyno-Pro-GDF-8 Plate 2' (method not described in the text)
human pro-myostatin [15] = biological target: T1, human pro-myostatin; experiment: plate binding assay, OD 450 nm, antibody titrated 0.0003 to 100 nM, panel 'Hu-Pro-GDF-8 Plate 2' (method not described in the text)
murine pro-myostatin [16] = biological target: T4, murine pro-myostatin; experiment: plate binding assay, OD 450 nm, antibody titrated 0.0003 to 100 nM, panel 'Mu-Pro-GDF-8 Plate 2' (method not described in the text)
human GDF-11 = human GDF-11 (human, UniProt O95390 299-407, limits assumed); experiment: plate binding assay, OD 450 nm, one antibody concentration that is not given, on Hu-GDF-11 (method not described in the text)
Chain of human GDF-11 (O95390 299-407 limits assumed): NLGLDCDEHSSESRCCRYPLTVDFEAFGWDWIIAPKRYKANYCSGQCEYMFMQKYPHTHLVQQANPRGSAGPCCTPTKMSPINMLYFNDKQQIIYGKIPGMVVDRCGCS

cyno pro-myostatin [17] = biological target: T3, cyno pro-myostatin; experiment: plate binding assay, OD 450 nm, antibody titrated 0.0003 to 100 nM, panel 'Cyno-Pro-GDF-8 Plate 3' (method not described in the text)
mouse GDF-11 = mouse GDF-11 (mouse, UniProt Q9Z1W4 297-405, limits assumed); experiment: plate binding assay, OD 450 nm, one antibody concentration that is not given, on Mu-GDF-11 (method not described in the text)
Chain of mouse GDF-11 (Q9Z1W4 297-405 limits assumed): as the sequence (O95390 299-407 limits assumed) above

human pro-myostatin [18] = biological target: T1, human pro-myostatin; experiment: plate binding assay, OD 450 nm, antibody titrated 0.0003 to 100 nM, panel 'Hu-Pro-GDF-8 Plate 3' (method not described in the text)
murine pro-myostatin [19] = biological target: T4, murine pro-myostatin; experiment: plate binding assay, OD 450 nm, antibody titrated 0.0003 to 100 nM, panel 'Mu-Pro-GDF-8 Plate 3' (method not described in the text)
human pro-myostatin [20] = biological target: T1, human pro-myostatin; experiment: plate binding assay, OD 450 nm, antibody titrated 0.0003 to 100 nM, panel 'Hu-Pro-GDF-8 Plate 1' (method not described in the text)
murine pro-myostatin [21] = biological target: T4, murine pro-myostatin; experiment: plate binding assay, OD 450 nm, antibody titrated 0.0003 to 100 nM, panel 'Mu-Pro-GDF-8 Plate 1' (method not described in the text)

Binder	IC50 (nM) Pro + Furin (human pro-myostatin [1]) [nM]	IC50 (nM) Latent + mTLL2 [2] [nM]	Kd (cyno pro-myostatin [7]) [nM]	koff (cyno pro-myostatin [7]) [s⁻¹]	kon (cyno pro-myostatin [7]) [M⁻¹ s⁻¹]	Kd (murine pro-myostatin [8]) [nM]	koff (murine pro-myostatin [8]) [s⁻¹]	kon (murine pro-myostatin [8]) [M⁻¹ s⁻¹]	Kd (human pro-myostatin [9]) [nM]	kon (human pro-myostatin [9]) [M⁻¹ s⁻¹]	koff (human pro-myostatin [9]) [s⁻¹]	binding result (human GDF-11)	binding result (mouse GDF-11)	also measured
B1	0.214	0.145	0.128	0.000925	7.23e+06	0.197	0.00134	6.81e+06	0.138	6.62e+06	–	–	–	fold difference in off-rate (Kd at pH 5.5 / Kd at pH 7.4) [3]: 25 fold; mTLL2 IC50 [4]: 0.145 nM; Kd (human pro-myostatin [5]): 0.579 nM; fold difference in off-rate (Kd at pH 5.5 / Kd at pH 7.4) [6]: 18.4 fold; IC50 of inhibition of myostatin activation by mTLL-2 (functional ELISA, FIG. 1A) [10]: 0.38 nM; IC50 of inhibition of myostatin activation by mTLL-2 (functional ELISA, FIG. 1B) [10]: 0.33 nM
B2	0.363	0.22	0.076	0.000322	4.21e+06	0.145	0.000518	3.58e+06	0.1	3.82e+06	0.000381	–	–	EC50 (read off the curve) (human pro-myostatin [11]): ~0.5 nM; EC50 (read off the curve) (murine pro-myostatin [12]): ~0.6 nM; EC50 (read off the curve) (cyno pro-myostatin [13]): ~0.7 nM
B3	0.143	0.386	0.106	0.000365	3.45e+06	0.187	0.000608	3.24e+06	0.101	3.16e+06	0.000318	–	–	EC50 (read off the curve) (cyno pro-myostatin [14]): ~0.2 nM; EC50 (read off the curve) (human pro-myostatin [15]): ~0.2 nM; EC50 (read off the curve) (murine pro-myostatin [16]): ~0.2 nM
B4	0.195	0.14	0.327	0.000269	821000	0.325	0.000265	815000	0.262	813000	0.000213	no binding	no binding	EC50 (read off the curve) (cyno pro-myostatin [17]): ~0.3 nM; EC50 (read off the curve) (human pro-myostatin [18]): ~0.4 nM; EC50 (read off the curve) (murine pro-myostatin [19]): ~0.6 nM
B5	–	–	–	–	–	–	–	–	–	–	–	–	–	fold difference in off-rate (Kd at pH 5.5 / Kd at pH 7.4) [3]: 24 fold; mTLL2 IC50 [4]: 0.144 nM; Kd (human pro-myostatin [5]): 0.926 nM
B6	–	–	–	–	–	–	–	–	–	–	–	–	–	EC50 (read off the curve) (cyno pro-myostatin [17]): ~0.2 nM; EC50 (read off the curve) (human pro-myostatin [18]): ~0.5 nM; EC50 (read off the curve) (murine pro-myostatin [19]): ~0.6 nM
B7	–	–	–	–	–	–	–	–	–	–	–	no binding	no binding	binding result (human pro-myostatin [20]): binds; binding result (murine pro-myostatin [21]): binds
B8	–	–	–	–	–	–	–	–	–	–	–	no binding	no binding	EC50 (read off the curve) (human pro-myostatin [20]): ~0.2 nM; EC50 (read off the curve) (murine pro-myostatin [21]): ~0.4 nM
